Paper PMC9518701, “Preclinical characterization of amubarvimab and romlusevimab, a pair of non-competing neutralizing monoclonal antibody cocktail, against SARS-CoV-2” (Frontiers in Immunology, 2022)

Biological target: T1, SARS-CoV-2 spike protein receptor binding domain (RBD) (SARS-CoV-2, wild type (Wuhan-Hu-1 …, UniProt P0DTC2))
T1 construct: also called SARS-CoV-2 RBD
Assay: SPR
Details: both partners purified

Binder | Kd [nM] | binding result
romlusevimab (BRII-198) (antibody, V domains shown) VH: QVQLVQSGSELKKPGASVKVSCKASGYTFTTYVMNWVRQAPGQGLEWMGWINTNTGNPTYAQGFTGRFVFSLDTSVSTASLQISSLKAEDTAVYYCSSEITTLGGMDVWGQGTTVTVSS VL: SYVLTQPPSVSVAPGKTARITCGGNNIGSKSVHWYQQKPGQAPVLVIYYDSDRPSGIPERFSGSNSGNTATLTISGVEAGDEADYYCQVWDSISDHRVFGGGTKLTVL | 0.56 | –
P2B-1G5 (precursor of romlusevimab) (antibody, V domains shown) VH: QVQLVQSGSELKKPGASVKVSCKASGYTFTTYVMNWVRQAPGQGLEWMGWINTNTGNPTYAQGFTGRFVFSLDTSVSTASLQISSLKAEDTAVYYCSCEITTLGGMDVWGQGTTVTVSS VL: SYVLTQPPSVSVAPGKTARITCGGNNIGSKSVHWYQQKPGQAPVLVIYYDSDRPSGIPERFSGSNSGNTATLTISGVEAGDEADYYCQVWDSISDHRVFGGGTKLTVL | – | binds
